Results as given in the supplement of paper PMC9876800.

Tested on: peptide library, one residue held at a place counted from the S/T acceptor
Assay: relative phosphorylation of the sub-library (ratio to the mean residue at this position); higher = residue favoured
How it was run: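 Relative sub-library phosphorylation is the ratio of each sub-library's signal to the mean residue at that position. The signal came from phosphorimaging of spots on streptavidin membranes, quantified by densitometry, after purified recombinant kinases reacted with biotinylated degenerate peptide sub-libraries in 384-well plates. Reactions held 50 μM peptide and 50 μM ATP spiked with γ-32P-ATP for 90 min under kinase-specific conditions.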

NEK5, construct: aa1-508, human, sequence (Q6P3R8 1-508, looked up): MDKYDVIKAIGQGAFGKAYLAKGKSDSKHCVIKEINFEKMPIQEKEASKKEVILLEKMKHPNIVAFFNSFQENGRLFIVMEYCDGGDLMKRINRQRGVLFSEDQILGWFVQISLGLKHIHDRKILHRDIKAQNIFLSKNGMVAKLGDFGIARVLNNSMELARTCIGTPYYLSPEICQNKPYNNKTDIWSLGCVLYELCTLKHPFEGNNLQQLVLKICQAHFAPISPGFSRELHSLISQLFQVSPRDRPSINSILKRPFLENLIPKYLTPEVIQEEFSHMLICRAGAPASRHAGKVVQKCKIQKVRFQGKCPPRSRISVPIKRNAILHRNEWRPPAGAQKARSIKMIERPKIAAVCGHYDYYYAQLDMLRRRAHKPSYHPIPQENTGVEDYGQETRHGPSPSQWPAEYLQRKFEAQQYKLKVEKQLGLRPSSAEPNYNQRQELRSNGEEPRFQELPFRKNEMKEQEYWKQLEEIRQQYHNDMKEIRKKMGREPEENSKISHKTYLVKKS
CDK19, construct: Full length, human, sequence (Q9BWU1 whole entry, looked up): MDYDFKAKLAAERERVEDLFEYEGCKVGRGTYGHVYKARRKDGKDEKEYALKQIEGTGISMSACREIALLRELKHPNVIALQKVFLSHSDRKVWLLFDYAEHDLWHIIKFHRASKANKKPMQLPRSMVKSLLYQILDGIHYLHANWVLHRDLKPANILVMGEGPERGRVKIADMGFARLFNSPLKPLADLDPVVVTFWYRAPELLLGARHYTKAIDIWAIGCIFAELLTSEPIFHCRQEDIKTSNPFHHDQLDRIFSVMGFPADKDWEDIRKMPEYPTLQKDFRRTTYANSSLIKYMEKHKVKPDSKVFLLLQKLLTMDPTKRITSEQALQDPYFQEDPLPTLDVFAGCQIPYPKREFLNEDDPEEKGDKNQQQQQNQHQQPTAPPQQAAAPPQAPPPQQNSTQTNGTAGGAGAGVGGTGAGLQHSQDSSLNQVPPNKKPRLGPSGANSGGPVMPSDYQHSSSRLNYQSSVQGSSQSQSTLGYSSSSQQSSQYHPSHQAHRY

CDK19, construct: Full length, human (from UniProt Q9BWU1)
relative phosphorylation
Settings | at +1 | at +2 | at +3 | at +4 | at -1 | at -2 | at -3 | at -4 | at -5
A fixed | 0.247 | 1.28 | 1.17 | 0.978 | 1.14 | 1.69 | 1.08 | 1.05 | 0.905
D fixed | 0.112 | 0.577 | 0.659 | 1.05 | 0.698 | 0.518 | 0.695 | 0.93 | 1.26
E fixed | 0.114 | 0.592 | 0.564 | 0.915 | 0.416 | 0.463 | 0.881 | 1.1 | 1.23
F fixed | 0.193 | 0.915 | 0.784 | 0.971 | 0.947 | 0.465 | 1.18 | 1.22 | 1.42
G fixed | 0.865 | 1.39 | 1.39 | 1.15 | 1.64 | 0.829 | 1.27 | 1.07 | 1.02
H fixed | 0.295 | 1.02 | 1.1 | 0.988 | 0.929 | 0.589 | 0.958 | 0.997 | 1.11
I fixed | 0.378 | 0.721 | 0.633 | 0.857 | 0.238 | 0.935 | 0.602 | 1.01 | 0.863
K fixed | 0.198 | 1.08 | 0.651 | 0.736 | 0.93 | 0.276 | 0.61 | 0.73 | 0.702
L fixed | 0.271 | 1.09 | 0.685 | 0.948 | 0.948 | 1.09 | 0.67 | 1.04 | 0.878
M fixed | 0.32 | 1.22 | 1.1 | 1.1 | 1.5 | 0.922 | 1.39 | 1.07 | 0.895
N fixed | 0.371 | 0.959 | 1.33 | 1.02 | 0.918 | 0.658 | 1.26 | 0.741 | 0.879
P fixed | 11.8 | 0.913 | 2.42 | 1.28 | 1.61 | 5.16 | 1.39 | 0.878 | 0.771
Q fixed | 0.314 | 1.1 | 0.892 | 1.01 | 1 | 0.846 | 1.16 | 0.881 | 0.801
R fixed | 0.186 | 1.51 | 0.934 | 0.919 | 1.53 | 0.393 | 0.674 | 0.875 | 0.844
V fixed | 0.92 | 0.725 | 0.903 | 0.945 | 0.425 | 1.25 | 0.583 | 0.786 | 0.685
W fixed | 0.248 | 1 | 0.881 | 1.24 | 1.01 | 0.498 | 1.45 | 1.34 | 1.08
Y fixed | 0.196 | 0.925 | 0.918 | 0.888 | 1.11 | 0.423 | 1.15 | 1.28 | 1.65
pThr fixed | 0.381 | 0.481 | 0.581 | 0.829 | 0.318 | 0.651 | 0.695 | 0.915 | 0.914
pTyr fixed | 0.344 | 0.83 | 0.733 | 0.902 | 0.505 | 0.427 | 0.718 | 1.03 | 1.12

NEK5, construct: aa1-508, human (from UniProt Q6P3R8)
relative phosphorylation
Settings | at +1 | at +2 | at +3 | at +4 | at -1 | at -2 | at -3 | at -4 | at -5
A fixed | 1.01 | 0.985 | 0.773 | 0.99 | 1.04 | 1.3 | 1.01 | 1.05 | 1.21
D fixed | 0.278 | 0.417 | 0.524 | 0.792 | 0.791 | 1.17 | 0.548 | 1.14 | 1.18
E fixed | 0.295 | 0.352 | 0.418 | 0.76 | 0.848 | 1.18 | 0.597 | 1.08 | 0.891
F fixed | 1.25 | 0.913 | 1.34 | 0.978 | 0.649 | 0.857 | 1.71 | 0.997 | 1
G fixed | 1.39 | 0.768 | 1.02 | 1.29 | 0.889 | 1.65 | 1.5 | 1.32 | 1.45
H fixed | 0.864 | 1.15 | 1.07 | 1.2 | 1.1 | 1.17 | 1.07 | 1.05 | 1.02
I fixed | 0.943 | 0.752 | 0.978 | 0.639 | 0.403 | 0.475 | 0.308 | 0.616 | 0.532
K fixed | 1.04 | 1.74 | 0.986 | 1.26 | 1.74 | 0.692 | 0.927 | 1.11 | 1.06
L fixed | 1.06 | 0.885 | 1.33 | 0.946 | 1.08 | 1.08 | 1.54 | 0.803 | 0.882
M fixed | 1.82 | 1.1 | 1.15 | 0.968 | 1.16 | 1.18 | 1.5 | 1.06 | 0.969
N fixed | 1.01 | 1.14 | 1.12 | 1.13 | 1.35 | 1.48 | 0.849 | 1.12 | 1.15
P fixed | 0.238 | 0.735 | 0.987 | 1.31 | 0.504 | 0.692 | 1.35 | 1.19 | 1.39
Q fixed | 1.61 | 1.01 | 0.868 | 1.05 | 1.31 | 0.958 | 0.729 | 0.869 | 0.844
R fixed | 1.36 | 2.28 | 1.26 | 1 | 1.78 | 0.826 | 0.798 | 0.994 | 1.09
V fixed | 0.902 | 0.846 | 0.812 | 0.701 | 0.624 | 0.482 | 0.318 | 0.531 | 0.655
W fixed | 1 | 0.873 | 1.29 | 1.07 | 0.643 | 0.945 | 1.22 | 1.25 | 0.896
Y fixed | 0.933 | 1.05 | 1.07 | 0.914 | 1.08 | 0.846 | 1.03 | 0.826 | 0.771
pThr fixed | 0.498 | 0.581 | 0.612 | 0.602 | 0.407 | 0.745 | 0.844 | 1 | 1.2
pTyr fixed | 0.429 | 0.401 | 0.715 | 0.562 | 0.879 | 1.12 | 1.01 | 1.01 | 1.15

DYRK1A, construct: aa147-185, human (from UniProt Q13627)
relative phosphorylation
Settings | at +1 | at +2 | at +3 | at +4 | at -1 | at -2 | at -3 | at -4 | at -5
A fixed | 0.555 | 0.855 | 0.76 | 0.819 | 1.27 | 1.63 | 0.864 | 0.989 | 0.962
D fixed | 0.289 | 0.642 | 0.666 | 0.794 | 0.556 | 0.35 | 0.461 | 0.768 | 0.695
E fixed | 0.286 | 0.461 | 0.598 | 0.768 | 0.59 | 0.348 | 0.372 | 0.879 | 0.674
F fixed | 0.557 | 1.42 | 1.41 | 1.97 | 0.736 | 0.452 | 0.417 | 0.814 | 1.06
G fixed | 0.692 | 1.03 | 1 | 1.09 | 0.983 | 0.826 | 1.08 | 1.06 | 1.1
H fixed | 0.506 | 1.23 | 1.37 | 1.07 | 1.13 | 0.589 | 0.674 | 1.01 | 1.2
I fixed | 0.488 | 1.4 | 0.957 | 1.01 | 0.726 | 0.605 | 0.387 | 0.928 | 1
K fixed | 0.631 | 0.679 | 0.626 | 0.801 | 1.31 | 0.712 | 0.739 | 1.1 | 1.05
L fixed | 0.463 | 1.6 | 1.36 | 1.04 | 0.887 | 0.785 | 0.467 | 0.936 | 0.92
M fixed | 0.554 | 1.29 | 1.24 | 1.23 | 1.21 | 0.659 | 0.456 | 0.964 | 0.918
N fixed | 0.471 | 0.79 | 0.789 | 0.893 | 0.849 | 0.641 | 0.5 | 0.871 | 0.876
P fixed | 8.74 | 0.803 | 1.94 | 0.87 | 1.87 | 4.42 | 0.564 | 1.04 | 1.16
Q fixed | 0.475 | 0.721 | 0.882 | 0.861 | 0.998 | 0.608 | 0.618 | 0.891 | 0.95
R fixed | 0.783 | 0.811 | 0.725 | 0.714 | 1.46 | 2.63 | 8.09 | 2.1 | 1.73
V fixed | 0.537 | 1.27 | 0.761 | 0.86 | 0.907 | 0.805 | 0.366 | 0.726 | 0.767
W fixed | 0.54 | 0.941 | 1.03 | 1.23 | 0.708 | 0.486 | 0.497 | 0.934 | 0.814
Y fixed | 0.432 | 1.06 | 0.877 | 0.976 | 0.815 | 0.454 | 0.444 | 1 | 1.13
pThr fixed | 0.379 | 0.562 | 0.556 | 0.773 | 0.374 | 0.487 | 0.391 | 0.789 | 0.805
pTyr fixed | 0.441 | 0.547 | 0.598 | 0.87 | 0.612 | 0.419 | 0.45 | 0.782 | 0.791
